Assay results published in IntAct's records for PubMed 29039417.

B1: BBSome complex member BBS4 (Homo sapiens), Q96RK4 (parent)
chain: MAEERVATRTQFPVSTESQKPRQKKAPEFPILEKQNWLIHLHYIRKDYEACKAVIKEQLQETQGLCEYAIYVQALIFRLEGNIQESLELFQTCAVLSPQSADNLKQVARSLFLLGKHKAAIEVYNEAAKLNQKDWEISHNLGVCYIYLKQFNKAQDQLHNALNLNRHDLTYIMLGKIHLLEGDLDKAIEVYKKAVEFSPENTELLTTLGLLYLQLGIYQKAFEHLGNALTYDPTNYKAILAAGSMMQTHGDFDVALTKYRVVACAVPESPPLWNNIGMCFFGKKKYVAAISCLKRANYLAPFDWKILYNLGLVHLTMQQYASAFHFLSAAINFQPKMGELYMLLAVALTNLEDIENAKRAYAEAVHLDKCNPLVNLNYAVLLYNQGEKKNALAQYQEMEKKVSLLKDNSSLEFDSEMVEMAQKLGAALQVGEALVWTKPVKDPKSKHQTTSTSKPASFQQPLGSNQALGQAMSSAAAYRTLPSGAGGTSQFTKPPSLPLEPEPAVESSPTETSEQIREK
partner: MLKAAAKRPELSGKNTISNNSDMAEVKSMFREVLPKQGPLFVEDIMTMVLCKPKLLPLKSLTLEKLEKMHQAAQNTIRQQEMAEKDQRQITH

Variants of: B1
Details: with bbip1_human BBIP1, A8MTZ0

| effect of a mutation on the interaction | Variant |
| --- | --- |
| with no effect | MAEERVATRTQFPVSTESQKPRQKKAPEFPILEKQNWLIHLHYIRKDYEACKAVIKEQLQETQGLCEYAIYVQALIFRLEGNIQESLELFQTCAVLSPQSADNLKQVARSLFLLGKHKAAIEVYNEAAKLNQKDWEISHNLGVCYIYLKQFNKAQDQLHNALNLNRHDLTYIMLGKIHLLEGDLDKAIEVYKKAVEFSPENTELLTTLGLLYLQLGIYQKAFEHLGNALTYDPTNYKAILAAGSMMQTHGDFDVALTKYRVVACAVPESPPLWNNIGMCFFGKKKYVAAISCLKRANYLAPFDWKILYNLGLVHLTMQQYASAFHFLSAAINFQPKMGELYMLLAVALTNLEDIENAKRAYAEAVHLDKCNPLVNLNYAVLLYNQGEKKNALAQYQEMEKKVSALKDNSSLEFDSEMVEMAQKLGAALQVGEALVWTKPVKDPKSKHQTTSTSKPASFQQPLGSNQALGQAMSSAAAYRTLPSGAGGTSQFTKPPSLPLEPEPAVESSPTETSEQIREK [L404A] |
| with no effect | MAEERVATRTQFPVSTESQKPRQKKAPEFPILEKQNWLIHLHYIRKDYEACKAVIKEQLQETQGLCEYAIYVQALIFRLEGNIQESLELFQTCAVLSPQSADNLKQVARSLFLLGKHKAAIEVYNEAAKLNQKDWEISHNLGVCYIYLKQFNKAQDQLHNALNLNRHDLTYIMLGKIHLLEGDLDKAIEVYKKAVEFSPENTELLTTLGLLYLQLGIYQKAFEHLGNALTYDPTNYKAILAAGSMMQTHGDFDVALTKYRVVACAVPESPPLWNNIGMCFFGKKKYVAAISCLKRANYLAPFDWKILYNLGLVHLTMQQYASAFHFLSAAINFQPKMGELYMLLAVALTNLEDIENAKRAYAEAVHLDKCNPLVNLNYAVLLYNQGEKKNALAQYQEMEKKVSLLKDNSSLEFDSEMVEMAQKLGAALQVGEALVWTKPVKDPKSKHQTTSTSKPASFQQPLGSNQALGQAMSSAAAYRTLPSGAGGTSQFTKPPSLPLEPEPAKESSPTETSEQIREK [V505K] |
| with no effect | MAEERVATRTQFPVSTESQKPRQKKAPEFPILEKQNWLIHLHYIRKDYEACKAVIKEQLQETQGLCEYAIYVQALIFRLEGNIQESLELFQTCAVLSPQSADNLKQVARSLFLLGKHKAAIEVYNEAAKLNQKDWEISHNLGVCYIYLKQFNKAQDQLHNALNLNRHDLTYIMLGKIHLLEGDLDKAIEVYKKAVEFSPENTELLTTLGLLYLQLGIYQKAFEHLGNALTYDPTNYKAILAAGSMMQTHGDFDVALTKYRVVACAVPESPPLWNNIGMCFFGKKKYVAAISCLKRANYLAPFDWKILYNLGLVHLTMQQYASAFHFLSAAINFQPKMGELYMLLAVALTNLEDIENAKRAYAEAVHLDKCNPLVNLNYAVLLYNQGEKKNALAQYQEMEKKVSLLKDNSSLEFDSEMVEMAQKLGAALQVGEALVWTKPVKDPKSKHQTTSTSKPASFQQPLGSNQALGQAMSSAAAYRTLPSGAGGTSQFTKPPSLPLEKEPAVESSPTETSEQIREK [P501K] |
| with no effect | MAEERVATRTQFPVSTESQKPRQKKAPEFPILEKQNWLIHLHYIRKDYEACKAVIKEQLQETQGLCEYAIYVQALIFRLEGNIQESLELFQTCAVLSPQSADNLKQVARSLFLLGKHKAAIEVYNEAAKLNQKDWEISHNLGVCYIYLKQFNKAQDQLHNALNLNRHDLTYIMLGKIHLLEGDLDKAIEVYKKAVEFSPENTELLTTLGLLYLQLGIYQKAFEHLGNALTYDPTNYKAILAAGSMMQTHGDFDVALTKYRVVACAVPESPPLWNNIGMCFFGKKKYVAAISCLKRANYLAPFDWKILYNLGLVHLTMQQYASAFHFLSAAINFQPKMGELYMLLAVALTNLEDIENAKRAYAEAVHLDKCNPLVNLNYAVLLYNQGEKKNALAQYQEMEKKVSLLKDNSSLEFDSEMVEMAQKLGAALQVGEALVWTKPVKDPKSKHQTTSTSKPASFQQPLGSNQALGQAMSSAAAYRTLPSGAGGKSQFTKPPSLPLEPEPAVESSPTETSEQIREK [T488K] |
| with no effect | MAEERVATRTQFPVSTESQKPRQKKAPEFPILEKQNWLIHLHYIRKDYEACKAVIKEQLQETQGLCEYAIYVQALIFRLEGNIQESLELFQTCAVLSPQSADNLKQVARSLFLLGKHKAAIEVYNEAAKLNQKDWEISHNLGVCYIYLKQFNKAQDQLHNALNLNRHDLTYIMLGKIHLLEGDLDKAIEVYKKAVEFSPENTELLTTLGLLYLQLGIYQKAFEHLGNALTYDPTNYKAILAAGSMMQTHGDFDVALTKYRVVACAVPESPPLWNNIGMCFFGKKKYVAAISCLKRANYLAPFDWKILYNLGLVHLTMQQYASAFHFLSAAINFQPKMGELYMLLAVALTNLEDIENAKRAYAEAVHLDKCNPLVNLNYAVLLYNQGEKKNALAQYQEMEKKVSLLKDNSSLEFDSEMVEMAQKLGAALQVGEALVWTKPVKDPKSKHQTTSTSKPASFQQPLGSNQALGQAMSSAAAYRTLPSGAGATSQFTKPPSLPLEPEPAVESSPTETSEQIREK [G487A] |
| with no effect | MAEERVATRTQFPVSTESQKPRQKKAPEFPILEKQNWLIHLHYIRKDYEACKAVIKEQLQETQGLCEYAIYVQALIFRLEGNIQESLELFQTCAVLSPQSADNLKQVARSLFLLGKHKAAIEVYNEAAKLNQKDWEISHNLGVCYIYLKQFNKAQDQLHNALNLNRHDLTYIMLGKIHLLEGDLDKAIEVYKKAVEFSPENTELLTTLGLLYLQLGIYQKAFEHLGNALTYDPTNYKAILAAGSMMQTHGDFDVALTKYRVVACAVPESPPLWNNIGMCFFGKKKYVAAISCLKRANYLAPFDWKILYNLGLVHLTMQQYASAFHFLSAAINFQPKMGELYMLLAVALTNLEDIENAKRAYAEAVHLDKCNPLVNLNYAVLLYNQGEKKNALAQYQEMEKKVSLLKDNSSLEFDSEMVEMAQKLGAALQVGEALVWTKPVKDPKSKHQTTSTSKPASFQEPLGSNQALGQAMSSAAAYRTLPSGAGGTSQFTKPPSLPLEPEPAVESSPTETSEQIREK [Q460E] |

The next lines start with the variant.

| Variant | effect of a mutation on the interaction |
| --- | --- |
| MAEERVATRTQFPVSTESQKPRQKKAPEFPILEKQNWLIHLHYIRKDYEACKAVIKEQLQETQGLCEYAIYVQALIFRLEGNIQESLELFQTCAVLSPQSADNLKQVARSLFLLGKHKAAIEVYNEAAKLNQKDWEISHNLGVCYIYLKQFNKAQDQLHNALNLNRHDLTYIMLGKIHLLEGDLDKAIEVYKKAVEFSPENTELLTTLGLLYLQLGIYQKAFEHLGNALTYDPTNYKAILAAGSMMQTHGDFDVALTKYRVVACAVPESPPLWNNIGMCFFGKKKYVAAISCLKRANYLAPFDWKILYNLGLVHLTMQQYASAFHFLSAAINFQPKMGELYMLLAVALTNLEDIENAKRAYAEAVHLDKCNPLVNLNYAVLLYNQGEKKNALAQYQEMEEKVSLLKDNSSLEFDSEMVEMAQKLGAALQVGEALVWTKPVKDPKSKHQTTSTSKPASFQQPLGSNQALGQAMSSAAAYRTLPSGAGGTSQFTKPPSLPLEPEPAVESSPTETSEQIREK [K400E] | with no effect |
| MAEERVATRTQFPVSTESQKPRQKKAPEFPILEKQNWLIHLHYIRKDYEACKAVIKEQLQETQGLCEYAIYVQALIFRLEGNIQESLELFQTCAVLSPQSADNLKQVARSLFLLGKHKAAIEVYNEAAKLNQKDWEISHNLGVCYIYLKQFNKAQDQLHNALNLNRHDLTYIMLGKIHLLEGDLDKAIEVYKKAVEFSPENTELLTTLGLLYLQLGIYQKAFEHLGNALTYDPTNYKAILAAGSMMQTHGDFDVALTKYRVVACAVPESPPLWNNIGMCFFGKKKYVAAISCLKRANYLAPFDWKILYNLGPVHLTMQQYASAFHFLSAAINFQPKMGELYMLLAVALTNLEDIENAKRAYAEAVHLDKCNPLVNLNYAVLLYNQGEKKNALAQYQEMEKKVSLLKDNSSLEFDSEMVEMAQKLGAALQVGEALVWTKPVKDPKSKHQTTSTSKPASFQQPLGSNQALGQAMSSAAAYRTLPSGAGGTSQFTKPPSLPLEPEPAVESSPTETSEQIREK [L312P] | disrupting interaction strength |
| MAEERVATRTQFPVSTESQKPRQKKAPEFPILEKQNWLIHLHYIRKDYEACKAVIKEQLQETQGLCEYAIYVQALIFRLEGNIQESLELFQTCAVLSPQSADNLKQVARSLFLLGKHKAAIEVYNEAAKLNQKDWEISHNLGVCYIYLKQFNKAQDQLHNALNLNRHDLTYIMLGKIHLLEGDLDKAIEVYKKAVEFSPENTELLTTLGLLYLQLGIYQKAFEHLGNALTYDPTNYKAILAAGSMMQTHGDFDVALTKYRVVACAVPESPPLWNNIGMCFFGKKKYVAAISCLKRANYLAPFDWKILYNLGAVHLTMQQYASAFHFLSAAINFQPKMGELYMLLAVALTNLEDIENAKRAYAEAVHLDKCNPLVNLNYAVLLYNQGEKKNALAQYQEMEKKVSLLKDNSSLEFDSEMVEMAQKLGAALQVGEALVWTKPVKDPKSKHQTTSTSKPASFQQPLGSNQALGQAMSSAAAYRTLPSGAGGTSQFTKPPSLPLEPEPAVESSPTETSEQIREK [L312A] | with no effect |
| MAEERVATRTQFPVSTESQKPRQKKAPEFPILEKQNWLIHLHYIRKDYEACKAVIKEQLQETQGLCEYAIYVQALIFRLEGNIQESLELFQTCAVLSPQSADNLKQVARSLFLLGKHKAAIEVYNEAAKLNQKDWEISHNLGVCYIYLKQFNKAQDQLHNALNLNRHDLTYIMLGKIHLLEGDLDKAIEVYKKAVEFSPENTELLTTLGLLYLQLGIYQKAFEHLGNALTYDPTNYKAILAAGSMMQTHGDFDVALTKYRVVACAVPESPPLWNNIGMCFFGKKKYAAAISCLKRANYLAPFDWKILYNLGLVHLTMQQYASAFHFLSAAINFQPKMGELYMLLAVALTNLEDIENAKRAYAEAVHLDKCNPLVNLNYAVLLYNQGEKKNALAQYQEMEKKVSLLKDNSSLEFDSEMVEMAQKLGAALQVGEALVWTKPVKDPKSKHQTTSTSKPASFQQPLGSNQALGQAMSSAAAYRTLPSGAGGTSQFTKPPSLPLEPEPAVESSPTETSEQIREK [V287A] | with no effect |
| MAEERVATRTQFPVSTESQKPRQKKAPEFPILEKQNWLIHLHYIRKDYEACKAVIKEQLQETQGLCEYAIYVQALIFRLEGNIQESLELFQTCAVLSPQSADNLKQVARSLFLLGKHKAAIEVYNEAAKLNQKDWEISHNLGVCYIYLKQFNKAQDQLHNALNLNRHDLTYIMLGKIHLLEGDLDKAIEVYKKAVEFSPENTELLTTLGLLYLQLGIYQKAFEHLGNALTYDPTNYKAILAAGSMMQTHGDFDVALTKYRVVACAVPESPPLWNNIGMCFFGKKKYVAAISCLKRANYLAPFDWKILYNLGLVHLTMQQYASAFHFLSAAINFQPKMGELYMLLAVALTNLEDIENAKRAYAEAVHLDKCNPLENLNYAVLLYNQGEKKNALAQYQEMEKKVSLLKDNSSLEFDSEMVEMAQKLGAALQVGEALVWTKPVKDPKSKHQTTSTSKPASFQQPLGSNQALGQAMSSAAAYRTLPSGAGGTSQFTKPPSLPLEPEPAVESSPTETSEQIREK [V374E] | with no effect |
| MAEERVATRTQFPVSTESQKPRQKKAPEFPILEKQNWLIHLHYIRKDYEACKAVIKEQLQETQGLCEYAIYVQALIFRLEGNIQESLELFQTCAVLSPQSADNLKQVARSLFLLGKHKAAIEVYNEAAKLNQKDWEISHNLGVCYIYLKQFNKAQDQLHNALNLNRHDLTYIMLGKIHLLEGDLDKAIEVYKKAVEFSPENTELLTTLGLLYLQLGIYQKAFEHLGNALTYDPTNYKAILAAGSMMQTHGDFDVALTKYRVVACAVPESPPLWNNIGMCFFGKKKYVAAISCLKRANYLAPFDWKILYNLGLVHLTMQQYASAFHFLSAAINFQPKMGEKYMLLAVALTNLEDIENAKRAYAEAVHLDKCNPLVNLNYAVLLYNQGEKKNALAQYQEMEKKVSLLKDNSSLEFDSEMVEMAQKLGAALQVGEALVWTKPVKDPKSKHQTTSTSKPASFQQPLGSNQALGQAMSSAAAYRTLPSGAGGTSQFTKPPSLPLEPEPAVESSPTETSEQIREK [L340K] | with no effect |
